According to the supplement of paper PMC9112550, “Optimization of the antimicrobial peptide Bac7 by deep mutational scanning” (BMC Biology, 2022):

test system: Escherichia coli TOP10; experiment: shrunken log2 fold change of peptide-encoding DNA abundance (4.5 h post-induction vs induction); higher = less antimicrobial activity (less host growth inhibition); conditions: time post-induction: 4.5 h; library: site-saturation at positions 5, 18, 19, 20
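Note: peptides expressed intracellularly from a pBAD plasmid library in pooled LB shake-flask culture, induced with 0.3% L-arabinose, DNA abundance read by NGS, three biological replicates, DESeq2 with apeglm shrinkage.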

Sequence | shrunken log2 fold change
RRIRVRPPRLPRPRPRPIGWPRP | 0.213
RRIRGRPPRLPRPRPRPQMHPRP | 0.989
RRIRWRPPRLPRPRPRPPPSPRP | 0.794
RRIRWRPPRLPRPRPRPRRYPRP | 0.18
RRIRVRPPRLPRPRPRPVIMPRP | -0.227
RRIRDRPPRLPRPRPRPWPIPRP | 0.00865
RRIRIRPPRLPRPRPRPITWPRP | -0.551
RRIRQRPPRLPRPRPRPSWWPRP | -0.176
RRIRGRPPRLPRPRPRPKWPPRP | 0.322
RRIRGRPPRLPRPRPRPKEAPRP | 0.948
RRIRYRPPRLPRPRPRPIDMPRP | -0.315
RRIRKRPPRLPRPRPRPSTKPRP | 0.143
RRIRARPPRLPRPRPRPESLPRP | 0.938
RRIRERPPRLPRPRPRPGLDPRP | -0.0204
RRIRSRPPRLPRPRPRPHWWPRP | 0.359
RRIRHRPPRLPRPRPRPKVAPRP | -0.049
RRIRNRPPRLPRPRPRPETPPRP | 0.36
RRIRWRPPRLPRPRPRPCNSPRP | -0.281
RRIRQRPPRLPRPRPRPEYNPRP | -0.424
RRIRVRPPRLPRPRPRPKYWPRP | -0.126
RRIRERPPRLPRPRPRPFGFPRP | -0.335
RRIRCRPPRLPRPRPRPGQAPRP | -0.0147
RRIRNRPPRLPRPRPRPSMWPRP | -0.0524
RRIRFRPPRLPRPRPRPHSIPRP | -0.248
RRIRTRPPRLPRPRPRPGEYPRP | -0.194

Sequence | shrunken log2 fold change
RRIRTRPPRLPRPRPRPDRHPRP | -0.143
RRIRDRPPRLPRPRPRPRLHPRP | 0.11
RRIRSRPPRLPRPRPRPDEFPRP | -0.149
RRIRFRPPRLPRPRPRPITGPRP | -0.107
RRIRWRPPRLPRPRPRPFNEPRP | -0.69
RRIRMRPPRLPRPRPRPIQNPRP | -0.157
RRIRARPPRLPRPRPRPIHFPRP | -0.169
RRIRTRPPRLPRPRPRPPWQPRP | 0.698
RRIRRRPPRLPRPRPRPTENPRP | 0.464
RRIRYRPPRLPRPRPRPTRRPRP | 0.358
RRIRYRPPRLPRPRPRPRKQPRP | -0.129
RRIRFRPPRLPRPRPRPASTPRP | -0.0365
RRIRCRPPRLPRPRPRPPYWPRP | 0.279
RRIRNRPPRLPRPRPRPFHVPRP | -0.128
RRIRSRPPRLPRPRPRPNFKPRP | -0.0661
RRIRRRPPRLPRPRPRPNTSPRP | -0.116
RRIRNRPPRLPRPRPRPINKPRP | -0.56
RRIRPRPPRLPRPRPRPMVEPRP | -0.112
RRIRQRPPRLPRPRPRPNSDPRP | -0.594
RRIRVRPPRLPRPRPRPIQVPRP | 0.0304
RRIRARPPRLPRPRPRPVWGPRP | 0.383
RRIRMRPPRLPRPRPRPYVNPRP | -0.284
RRIRPRPPRLPRPRPRPPKIPRP | 0.0961
RRIRRRPPRLPRPRPRPPTWPRP | 0.336
RRIRTRPPRLPRPRPRPKWWPRP | 0.683

Sequence | shrunken log2 fold change
RRIRHRPPRLPRPRPRPMIKPRP | -0.0726
RRIRGRPPRLPRPRPRPELMPRP | 0.853
RRIRNRPPRLPRPRPRPQFQPRP | 0.0437
RRIRQRPPRLPRPRPRPSMVPRP | -0.632
RRIRVRPPRLPRPRPRPKWCPRP | 0.289
RRIRQRPPRLPRPRPRPERWPRP | 0.251
RRIRCRPPRLPRPRPRPRIIPRP | -0.443
RRIRSRPPRLPRPRPRPMHGPRP | 0.102
RRIRFRPPRLPRPRPRPFMGPRP | -0.348
RRIRHRPPRLPRPRPRPGSYPRP | -0.287
RRIRRRPPRLPRPRPRPWCLPRP | -0.214
RRIRVRPPRLPRPRPRPSLLPRP | -0.23
RRIRFRPPRLPRPRPRPDKGPRP | -0.0555
RRIRKRPPRLPRPRPRPMVQPRP | 0.208
RRIRYRPPRLPRPRPRPFLHPRP | -0.786
RRIRARPPRLPRPRPRPYENPRP | -0.0975
RRIRGRPPRLPRPRPRPMSMPRP | 0.257
RRIRHRPPRLPRPRPRPDTCPRP | -0.287
RRIRNRPPRLPRPRPRPVDIPRP | 0.00355
RRIRMRPPRLPRPRPRPEVSPRP | 0.221
RRIRWRPPRLPRPRPRPDMKPRP | 0.0231
RRIRYRPPRLPRPRPRPSYPPRP | -0.217
RRIRTRPPRLPRPRPRPQWLPRP | -0.455
RRIRLRPPRLPRPRPRPPHLPRP | -0.0637
RRIRPRPPRLPRPRPRPAAIPRP | 0.0249

Sequence | shrunken log2 fold change
RRIRRRPPRLPRPRPRPPCGPRP | 0.324
RRIRWRPPRLPRPRPRPLNHPRP | -0.176
RRIRLRPPRLPRPRPRPMADPRP | 0.0237
RRIRCRPPRLPRPRPRPQKLPRP | -0.188
RRIRVRPPRLPRPRPRPAHFPRP | 0.31
RRIRMRPPRLPRPRPRPQSLPRP | -0.0682
RRIRHRPPRLPRPRPRPKKTPRP | 0.0065
RRIRIRPPRLPRPRPRPHMTPRP | -0.64
RRIRWRPPRLPRPRPRPYCTPRP | -0.322
RRIRQRPPRLPRPRPRPCAYPRP | -0.0948
RRIRERPPRLPRPRPRPCMIPRP | -0.2
RRIRMRPPRLPRPRPRPLTQPRP | 0.175
RRIRYRPPRLPRPRPRPTNWPRP | -0.185
RRIRYRPPRLPRPRPRPFWIPRP | -0.0013
RRIRYRPPRLPRPRPRPDIMPRP | -1.15
RRIRMRPPRLPRPRPRPMSQPRP | 0.0528
RRIRSRPPRLPRPRPRPIFHPRP | -0.29
RRIRIRPPRLPRPRPRPGHTPRP | -0.165
RRIRVRPPRLPRPRPRPIYVPRP | -0.0279
RRIRERPPRLPRPRPRPHIIPRP | -0.412
RRIRNRPPRLPRPRPRPPYFPRP | -0.172
RRIRWRPPRLPRPRPRPVMSPRP | -0.172
RRIRHRPPRLPRPRPRPNSRPRP | -0.0698
RRIRWRPPRLPRPRPRPADSPRP | -0.29
RRIRKRPPRLPRPRPRPKMPPRP | 0.0535

Sequence | shrunken log2 fold change
RRIRSRPPRLPRPRPRPSECPRP | -0.211
RRIRIRPPRLPRPRPRPSEKPRP | -0.195
RRIRKRPPRLPRPRPRPPHEPRP | 0.491
RRIRYRPPRLPRPRPRPRWYPRP | -1.15
RRIRMRPPRLPRPRPRPNMWPRP | 0.0353
RRIRARPPRLPRPRPRPTIYPRP | 0.0113
RRIRSRPPRLPRPRPRPSINPRP | -0.567
RRIRERPPRLPRPRPRPCDKPRP | 0.0148
RRIRQRPPRLPRPRPRPSWCPRP | -0.141
RRIRRRPPRLPRPRPRPVPEPRP | 0.543
RRIRNRPPRLPRPRPRPWTTPRP | -0.0122
RRIRARPPRLPRPRPRPVWKPRP | 0.125
RRIRFRPPRLPRPRPRPEDFPRP | 0.0568
RRIRCRPPRLPRPRPRPYRAPRP | -0.383
RRIRNRPPRLPRPRPRPQRYPRP | -0.602
RRIRYRPPRLPRPRPRPISLPRP | -0.333
RRIRPRPPRLPRPRPRPGKNPRP | -0.00164
RRIRCRPPRLPRPRPRPLFTPRP | -0.42
RRIRCRPPRLPRPRPRPKEEPRP | -0.0302
RRIRDRPPRLPRPRPRPCIQPRP | -0.0125
RRIRYRPPRLPRPRPRPAPCPRP | -0.0799
RRIRLRPPRLPRPRPRPHNAPRP | 1.08
RRIRVRPPRLPRPRPRPMPHPRP | -0.227
RRIRHRPPRLPRPRPRPCPWPRP | -0.168
RRIRRRPPRLPRPRPRPKFHPRP | 0.323

Sequence | shrunken log2 fold change
RRIRGRPPRLPRPRPRPMRTPRP | 2
RRIRVRPPRLPRPRPRPAILPRP | -0.204
RRIRNRPPRLPRPRPRPYECPRP | -0.177
RRIRDRPPRLPRPRPRPTVVPRP | 0.149
RRIRIRPPRLPRPRPRPKDSPRP | -0.273
RRIRQRPPRLPRPRPRPTNKPRP | -0.579
RRIRARPPRLPRPRPRPMIGPRP | 0.102
RRIRTRPPRLPRPRPRPMAHPRP | -0.161
RRIRVRPPRLPRPRPRPFTTPRP | -0.211
RRIRSRPPRLPRPRPRPWNCPRP | -0.223
RRIRKRPPRLPRPRPRPVTVPRP | -0.0834
RRIRWRPPRLPRPRPRPVCNPRP | 0.0983
RRIRSRPPRLPRPRPRPYDGPRP | -0.203
RRIRWRPPRLPRPRPRPPMLPRP | 0.0923
RRIRRRPPRLPRPRPRPFKDPRP | -0.11
RRIRLRPPRLPRPRPRPFREPRP | -0.0266
RRIRERPPRLPRPRPRPCRFPRP | -0.455
RRIRFRPPRLPRPRPRPGWHPRP | 0.277
RRIRRRPPRLPRPRPRPMLAPRP | 0.983
RRIRYRPPRLPRPRPRPYWYPRP | -0.322
RRIRWRPPRLPRPRPRPKAIPRP | -0.00613
RRIRFRPPRLPRPRPRPFFPPRP | 0.386
RRIRNRPPRLPRPRPRPEANPRP | -0.0185
RRIRGRPPRLPRPRPRPRYLPRP | 0.282
RRIRRRPPRLPRPRPRPHDFPRP | 0.103
